The chains are these.
B1: LRRTM1 (protein, UniProt Q86UE6 35-522, looked up)
Leucine-rich repeat …: APSGCPQLCRCEGRLLYCEALNLTEAPHNLSGLLGLSLRYNSLSELRAGQFTGLMQLTWLYLDHNHICSVQGDAFQKLRRVKELTLSSNQITQLPNTTFRPMPNLRSVDLSYNKLQALAPDLFHGLRKLTTLHMRANAIQFVPVRIFQDCRSLKFLDIGYNQLKSLARNSFAGLFKLTELHLEHNDLVKVNFAHFPRLISLHSLCLRRNKVAIVVSSLDWVWNLEKMDLSGNEIEYMEPHVFETVPHLQSLQLDSNRLTYIEPRILNSWKSLTSITLAGNLWDCGRNVCALASWLNNFQGRYDGNLQCASPEYAQGEDVLDAVYAFHLCEDGAEPTSGHLLSAVTNRSDLGPPASSATTLADGGEGQHDGTFEPATVALPGGEHAENAVQIHKVVTGTMALIFSFLIVVLVLYVSWKCFPASLRQLRQCFVTQRRKQKQKQTMHQMAAMSAQEYYVDYKPNHIEGALVIINEYGSCTCHQQPARECEV
B2: LPXN (protein, UniProt O60711 1-386, looked up)
Leupaxin: MEELDALLEELERSTLQDSDEYSNPAPLPLDQHSRKETNLDETSEILSIQDNTSPLPAQLVYTTNIQELNVYSEAQEPKESPPPSKTSAAAQLDELMAHLTEMQAKVAVRADAGKKHLPDKQDHKASLDSMLGGLEQELQDLGIATVPKGHCASCQKPIAGKVIHALGQSWHPEHFVCTHCKEEIGSSPFFERSGLAYCPNDYHQLFSPRCAYCAAPILDKVLTAMNQTWHPEHFFCSHCGEVFGAEGFHEKDKKPYCRKDFLAMFSPKCGGCNRPVLENYLSAMDTVWHPECFVCGDCFTSFSTGSFFELDGRPFCELHYHHRRGTLCHGCGQPITGRCISAMGYKFHPEHFVCAFCLTQLSKGIFREQNDKTYCQPCFNKLFPL
B3: MAGED1 (protein, UniProt Q9Y5V3 1-778, looked up)
Melanoma-associated antigen D1: MAQKMDCGAGLLGFQAEASVEDSALLMQTLMEAIQISEAPPTNQATAAASPQSSQPPTANEMADIQVSAAAARPKSAFKVQNATTKGPNGVYDFSQAHNAKDVPNTQPKAAFKSQNATPKGPNAAYDFSQAATTGELAANKSEMAFKAQNATTKVGPNATYNFSQSLNANDLANSRPKTPFKAWNDTTKAPTADTQTQNVNQAKMATSQADIETDPGISEPDGATAQTSADGSQAQNLESRTIIRGKRTRKINNLNVEENSSGDQRRAPLAAGTWRSAPVPVTTQNPPGAPPNVLWQTPLAWQNPSGWQNQTARQTPPARQSPPARQTPPAWQNPVAWQNPVIWPNPVIWQNPVIWPNPIVWPGPVVWPNPLAWQNPPGWQTPPGWQTPPGWQGPPDWQGPPDWPLPPDWPLPPDWPLPTDWPLPPDWIPADWPIPPDWQNLRPSPNLRPSPNSRASQNPGAAQPRDVALLQERANKLVKYLMLKDYTKVPIKRSEMLRDIIREYTDVYPEIIERACFVLEKKFGIQLKEIDKEEHLYILISTPESLAGILGTTKDTPKLGLLLVILGVIFMNGNRASEAVLWEALRKMGLRPGVRHPLLGDLRKLLTYEFVKQKYLDYRRVPNSNPPEYEFLWGLRSYHETSKMKVLRFIAEVQKRDPRDWTAQFMEAADEALDALDAAAAEAEARAEARTRMGIGDEAVSGPWSWDDIEFELLTWDEEGDFGDPWSRIPFTFWARYHQNARSRFPQTFAGPIIGPGGTASANFAANFGAIGFFWVE
B4: LDB1 (protein, UniProt Q86U70 2-411, looked up)
LIM domain-binding protein 1: SVGCACPGCSSKSFKLYSPKEPPNGNAFPPFHPGTMLDRDVGPTPMYPPTYLEPGIGRHTPYGNQTDYRIFELNKRLQNWTEECDNLWWDAFTTEFFEDDAMLTITFCLEDGPKRYTIGRTLIPRYFRSIFEGGATELYYVLKHPKEAFHSNFVSLDCDQGSMVTQHGKPMFTQVCVEGRLYLEFMFDDMMRIKTWHFSIRQHRELIPRSILAMHAQDPQMLDQLSKNITRCGLSNSTLNYLRLCVILEPMQELMSRHKTYSLSPRDCLKTCLFQKWQRMVAPPAEPTRQQPSKRRKRKMSGGSTMSSGGGNTNNSNSKKKSPASTFALSSQVPDVMVVGEPTLMGGEFGDEDERLITRLENTQFDAANGIDDEDSFNNSPALGANSPWNSKPPSSQESKSENPTSQASQ
B5: LRRCC1 (protein, UniProt Q9C099 1-1032, looked up)
Leucine-rich repeat and …: MEAAAAVVAAEAEVENEDGDSSCGDVCFMDKGLQSISELSLDSTLHAVNLHCNNISKIEAIDHIWNLQHLDLSSNQISRIEGLNTLTKLCTLNLSCNLITKVEGLEELINLTRLNVSYNHIDDLSGLIPLHGIKHKLRYIDLHSNRIDSIHHLLQCMVGLHFLTNLILEKDGDDNPVCRLPGYRAVILQTLPQLRILDCKNIFGEPVNLTEINSSQLQCLEGLLDNLVSSDSPLNISEDEIIDRMPVITAPIDELVPLEQFASTPSDAVLTSFMSVCQSSEPEKNNHENDLQNEIKLQKLDDQILQLLNETSNSIDNVLEKDPRPKRDTDITSESDYGNRKECNRKVPRRSKIPYDAKTIQTIKHHNKNYNSFVSCNRKMKPPYLKELYVSSSLANCPMLQESEKPKTEIIKVDQSHSEDNTYQSLVEQLDQEREKRWRAEQAENKLMDYIDELHKHANEKEDIHSLALLTTDRLKEIIFRERNSKGQLEVMVHKLQNEIKKLTVELMKAKDQQEDHLKHLRTLEKTLEKMERQKRQQQAAQIRLIQEVELKASAADREIYLLRTSLHREREQAQQLHQLLALKEQEHRKELETREFFTDADFQDALAKEIAKEEKKHEQMIKEYQEKIDVLSQQYMDLENEFRIALTVEARRFQDVKDGFENVATELAKSKHALIWAQRKENESSSLIKDLTCMVKEQKTKLAEVSKLKQETAANLQNQINTLEILIEDDKQKSIQIELLKHEKVQLISELAAKESLIFGLRTERKVWGHELAQQGSSLAQNRGKLEAQIESLSRENECLRKTNESDSDALRIKCKIIDDQTETIRKLKDCLQEKDEHIKRLQEKITEIEKCTQEQLDEKSSQLDEVLEKLERHNERKEKLKQQLKGKEVELEEIRKAYSTLNRKWHDKGELLCHLETQVKEVKEKFENKEKKLKAERDKSIELQKNAMEKLHSMDDAFKRQVDAIVEAHQAEIAQLANEKQKCIDSANLKVHQIEKEMRELLEETCKNKKTMEAKIKQLAFALNEIQQDM
B6: LZTS2 (protein, UniProt Q9BRK4 1-669, looked up)
Leucine zipper putative tumor …: MAIVQTLPVPLEPAPEAATAPQAPVMGSVSSLISGRPCPGGPAPPRHHGPPGPTFFRQQDGLLRGGYEAQEPLCPAVPPRKAVPVTSFTYINEDFRTESPPSPSSDVEDAREQRAHNAHLRGPPPKLIPVSGKLEKNMEKILIRPTAFKPVLPKPRGAPSLPSFMGPRATGLSGSQGSLTQLFGGPASSSSSSSSSSAADKPLAFSGWASGCPSGTLSDSGRNSLSSLPTYSTGGAEPTTSSPGGHLPSHGSGRGALPGPARGVPTGPSHSDSGRSSSSKSTGSLGGRVAGGLLGSGTRASPDSSSCGERSPPPPPPPPSDEALLHCVLEGKLRDREAELQQLRDSLDENEATMCQAYEERQRHWQREREALREDCAAQAQRAQRAQQLLQLQVFQLQQEKRQLQDDFAQLLQEREQLERRCATLEREQRELGPRLEETKWEVCQKSGEISLLKQQLKESQAELVQKGSELVALRVALREARATLRVSEGRARGLQEAARARELELEACSQELQRHRQEAEQLREKAGQLDAEAAGLREPPVPPATADPFLLAESDEAKVQRAAAGVGGSLRAQVERLRVELQRERRRGEEQRDSFEGERLAWQAEKEQVIRYQKQLQHNYIQMYRRNRQLEQELQQLSLELEARELADLGLAEQAPCICLEEITATEI

One experiment has as its target T1, HCV ORFs (Gal4-DB fusions) (Hepatitis C virus genotype 1b, UniProt Q9WMX2).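 Note: yeast two-hybrid screens using HCV genotype 1b proteins fused to Gal4-DB as baits against prey cDNA libraries from human spleen and foetal brain, IMAP1 via transformation and IMAP2 via mating.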
T1 construct: expressed in transfected cells; host or cells: Saccharomyces cerevisiae MAV203 (IMAP1) / AH109 (IMAP2)
Assay: not given
In kind it is binding, HCV genotype 1b, isolate con1. Particulars: HCV protein CORE as bait; human protein as prey.
Turning to B1, the “IMAP Y2H IMAP1 (number of IST)” value was 1.
For the molecule B2, the “IMAP Y2H IMAP1 (number of IST)” value is reported as 1.
For B3, the “IMAP Y2H IMAP1 (number of IST)” value came to 1 and the “IMAP Y2H IMAP2 (number of IST)” value came out at 2.

Still in this experiment, the particulars now being: HCV protein NS3 as bait; human protein as prey.
On to B4, for which the “IMAP Y2H IMAP1 (number of IST)” value came to 1.
Consider B5, for which the “IMAP Y2H IMAP1 (number of IST)” value was found to be 1.
Same read-out and setting: the result for B3 reads 1; that for B6, 8.

Another experiment relates to HCV ORFs (Gal4-DB fusions).
Assay: not given
Particulars: human protein listed by gene symbol; the value names the HCV protein it interacts with. Type of experiment: binding, HCV genotype 1b, isolate con1.
B1: the “Interaction with viral protein” value is “CORE”.
The same measure, in the same setting: to B4 belongs “NS3”.
On the same count and under the same terms, the result for B5 reads “NS3”; that for B2, “CORE”; that for B3, “NS3 and CORE”.
Still for that read-out and setting: the result for B6 reads “NS3”.

In a further experiment the target is T2, HCV proteins (Hepatitis C virus genotype 1b, UniProt Q9WMX2).
T2 construct: expressed in transfected cells
Briefly: Validation by Y2H pairwise matrices.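 Note: yeast two-hybrid pairwise tests of interactions first found in Y2H screens of HCV bait proteins against human cDNA libraries.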 Type of experiment: binding. The note with it: validation of interaction with HCV protein CORE.
Take B1: the Y2H matrices entry is reported as “+”.
The same measure, in the same setting: the result for B2 reads “+”.
As for B3, the Y2H matrices result was “+”.

The experiment is the same for the next values; noted with them: validation of interaction with HCV protein NS3.
As to B4, the Y2H matrices result was “+”.
In the case of B5, the Y2H matrices entry is “+”.
The same measure, in the same setting: the result for B3 reads “+”.
B6: the Y2H matrices result was “+”.
